The target of this assay is Human CaM (calmodulin) (human, UniProt P0DP23 1-149). As to the kind of experiment: cell-based or functional assay.
In the case of TRKKTFKEVANAVKISASLM [Unmodified CBD peptide, T495 (heNOS CaM-binding domain, residues 491-510)], the “inhibition of eNOS L-citrulline formation (100 nM eNOS, 0.5 uM CaM) by 10 uM peptide” value (from here on “inhibition”) came to 87%.

Consider TRKKAFKEVANAVKISASLM [Phospho-null CBD peptide, A495 (heNOS residues 491-510)], for which the “inhibition” value is 70%.

Consider TRKKDFKEVANAVKISASLM [Phosphomimetic CBD peptide, D495 (heNOS residues 491-510)], for which the “inhibition” value is 20%.

Source of the values: publication PMC4122979 (Bioscience Reports, 2014).
